For 38 variants, self-cleavage results are on record in the RNAGym collection of RNA variant scans (doi:10.7554/elife.80360).

B1: Hairpin Ribozyme (parent)
chain: GUCCUCUUUCACGUGCGCGUGAAAGAGAGAAGUGAACCAGAGAAACACACGUUGUGGUAUAUUACCUGGUA

Variants of B1 are the subject of the data set. Put plainly: self-cleavage, relative activity (ratio to wild type); higher = more cleavage; co-transcriptional.
On to GUCCUCUUUCACGUGCGCGUGAAAGAGAGAAGUGAACCAGAGAAACACAAGUUGUGGUAUAUUACCUGGGA [C50A U70G], for which the self-cleavage was found to be 0.252.
Regarding GUCCUCUUUCACGAGCGCGUGAAAGAGAGAAGUGAACCAGAGAAACACACGUUGUGGAAUAUUACCUGGUA [U14A U58A], the self-cleavage amounted to 0.792.
To GUCCUCUUUCACGUGCGCGUGCAAGAGAGAAGUGAUCCAGAGAAACACACGUUGUGGUAUAUUACCUGGUA [A22C A36U] belongs 0.581; to GUCCUCUUUCACGUGCGCGUGAAAGCGAGAAGGGAACCAGAGAAACACACGUUGUGGUAUAUUACCUGGUA [A26C U33G], 0.0995; to GUCCUCUUUCACGUGCGCUUGAAAGAGAGAAAUGAACCAGAGAAACACACGUUGUGGUAUAUUACCUGGUA [G19U G32A], 0.124.
With GUCCUCUUUCACGUGCGCGUGAAAGAGAGAAGUGAAUCAGAGAAACACACGUUGUGGUAUAUUACCUGGAA [C37U U70A], the self-cleavage turned out to be 0.544.
Consider GUCCUCUUUCACGUGCGCGUGAAAGAGAGAAGUGAACCAGAGAAAUACACGUUGAGGUAUAUUACCUGGUA [C46U U55A], for which the self-cleavage came out at 0.115.
For the variant GUCCUCUUUCACGUGCGCGUCAAAGAGAGAAGUGAACCAGAGAAACACACGUUGUGGGAUAUUACCUGGUA [G21C U58G], the self-cleavage turned out to be 0.647.
Turning to GUCCUCUUUCACGUGCGCGUGAAAGAGAGAAGUGAACCAUAGAAACACACGUUGUGGGAUAUUACCUGGUA [G40U U58G], the self-cleavage worked out at 0.183.
For GUCCUCUUUCACGUGCGCGUGAGAGAGAGAAGUGAACCAGAGAAACACACGUUGUGGUACAUUACCUGGUA [A23G U60C], the self-cleavage came out at 0.924.
To GUCAUCUUUCACGUGCGCGUGAAAGAGAGAAGUGAACCAGAGAAACACACGUUGUGGCAUAUUACCUGGUA [C4A U58C] belongs 0.293.
In the case of GUCCUCUUUCACGUGCGCGUUAAAGAGAGAAGUGAUCCAGAGAAACACACGUUGUGGUAUAUUACCUGGUA [G21U A36U], the self-cleavage is 0.661.
On to GUCCUCUUGCACGUGCGCGUGAAAGAGAGAGGUGAACCAGAGAAACACACGUUGUGGUAUAUUACCUGGUA [U9G A31G], for which the self-cleavage was 0.549.
To GUCCUUUUUCACGUGCGCGUGAAAGAGAGAAGUGAACCAGAGAAACACACGUUGUGGUAUAUGACCUGGUA [C6U U63G] belongs 0.119; to AUCCUCUUUCACGUGCGCGUGAAAGAGAGAAGUGAACCAGAGAAAAACACGUUGUGGUAUAUUACCUGGUA [G1A C46A], 0.134; to GUCCUCUUUCACAUGCGCGUGAAAGAGAGAAGUGAACCAGAGAAACACACGUUGUUGUAUAUUACCUGGUA [G13A G56U], 0.137.
For the variant GUCCUCUUUCACGUGCACGUGAAAGAGAGAAGUGAACCAGAGAAACACACGUUGUGGUAUUUUACCUGGUA [G17A A61U], the self-cleavage was 0.208.
To UUCCUCUCUCACGUGCGCGUGAAAGAGAGAAGUGAACCAGAGAAACACACGUUGUGGUAUAUUACCUGGUA [G1U U8C] belongs 0.118.
To GUCCUCUUUCACGUGCGCGUGAAAGAGAGAAGUGAACCAGAGUAACACACGUUGUGGUAAAUUACCUGGUA [A43U U60A] belongs 0.255; to GUCCUCUUUCACGUGCGCGUGAAAUAGAGAAGUGAACCAGAGAAGCACACGUUGUGGUAUAUUACCUGGUA [G25U A45G], 0.118.
To GUCCUCUUUCACGUGCGCCUGACAGAGAGAAGUGAACCAGAGAAACACACGUUGUGGUAUAUUACCUGGUA [G19C A23C] belongs 0.696; to GUCCUCUUUCGCAUGCGCGUGAAAGAGAGAAGUGAACCAGAGAAACACACGUUGUGGUAUAUUACCUGGUA [A11G G13A], 0.924; to GUCCUCUUUCACGUGCGCGUGAAAGAGAGAAGUGAUCCAGAGAAACACACGUAGUGGUAUAUUACCUGGUA [A36U U53A], 0.464.
Regarding GUCCGCUUUCACGUGCGCGUGAAAGAGAGAAGUGAACCAAAGAAACACACGUUGUGGUAUAUUACCUGGUA [U5G G40A], the self-cleavage worked out at 0.0651.
To GUCAUCUUUCACGUGCGCGUGAAAGAGAGAAGUGAACCAAAGAAACACACGUUGUGGUAUAUUACCUGGUA [C4A G40A] belongs 0.133; to GUCCUCUUGCACGUGCGGGUGAAAGAGAGAAGUGAACCAGAGAAACACACGUUGUGGUAUAUUACCUGGUA [U9G C18G], 0.801.
To GUCCUCUUACACGUGCGCGUGAAAGAGAGAAGUGAACCACAGAAACACACGUUGUGGUAUAUUACCUGGUA [U9A G40C] belongs 0.133; to GUCCUCUUUCACGUGCGCGUGAAAGAGAGAAGUGAACCCGAGAAACACACGUUGUGGUAUAUUACGUGGUA [A39C C66G], 0.0809.
In the case of GUCCUCUUUCACGUGAGCGUGAAAGAGAGAAGUGAACCACAGAAACACACGUUGUGGUAUAUUACCUGGUA [C16A G40C], the self-cleavage was found to be 0.157.
To GUCCUCUUUCACGUGAGCGUGAAAGAGAGAAGUGAACCAAAGAAACACACGUUGUGGUAUAUUACCUGGUA [C16A G40A] belongs 0.28; to GUCCUCUUUCACGUGCGCGUGAAAGAGAGAAGUGAACCAGAGAAACAGACGUUGUGGUAUACUACCUGGUA [C48G U62C], 0.139; to GUCCUCUUUCACGUGCUCGUGAAAGAGAGAAGUGAACCAGAGAAACACACGUUGAGGUAUAUUACCUGGUA [G17U U55A], 0.142.
To GUCCUCUUUCACUUGCGCGUGAAAGAGAGAAGUGAACCAGAGAAACACACGUUGUGGUAUAUUAACUGGUA [G13U C65A] belongs 0.845.
With GUCCUCUUUAACGUGCGCGUGAAAGAGAGAAGUGAACCAGAGAAACACACGUUGUGGUAUAUCACCUGGUA [C10A U63C], the self-cleavage was 0.207.
To GUCCUCUUUCACGUGCGCGUGAAAGAGAGAAGUAAACCAGAGAAACACACGUUGUGGUAUAUUACCUGGUG [G34A A71G] belongs 1.41; to GUCCUCUUUCGCGUGCGCGUGAAAGAGAGAAGUGAACCAGAGAAACACACGUUGUUGUAUAUUACCUGGUA [A11G G56U], 0.105; to GUCCUCUUUCACGUGCGCGAGAAUGAGAGAAGUGAACCAGAGAAACACACGUUGUGGUAUAUUACCUGGUA [U20A A24U], 0.732.
As to GUCCUCUUUCACGCGCGCGUGAAAGAGAUAAGUGAACCAGAGAAACACACGUUGUGGUAUAUUACCUGGUA [U14C G29U], the self-cleavage amounted to 0.198.
